target: LRP (low density lipoprotein receptor-related protein) (human) (UniProt Q07954); test: SPR, Biacore 3000, LRP amine-coupled to CM5 chip, A2 domain as analyte 62.5-500 nM, 1:1 Langmuir fit, 25 C

Kd [nM] | Substance
170 | HPC4-tagged A2 domain mutant 433D->N (from UniProt P00451 392-759) (ligand)
260 | HPC4-tagged A2 domain mutant 488S->N & 490R->T (from UniProt P00451 392-759) (ligand)
20 | HPC4-tagged A2 domain of wild-type FVIII (from UniProt P00451 392-759) (ligand)
